Experimental data from patent US8729232.

Assays:
[1] = target: S. coelicolor sulfatase motif peptide … with Arg6 substituted by alanine
[2] = target: S. coelicolor sulfatase motif peptide … with Leu9 substituted by alanine
[3] = target: S. coelicolor sulfatase motif peptide … with Pro4 substituted by alanine
[4] = target: S. coelicolor sulfatase motif peptide … with Thr3 substituted by alanine

B1: Streptomyces coelicolor formylglycine generating enzyme (Strep FGE, SCO7548), recombinant (protein)
chain: AVAAPSPAAAAEPGPAARPRSTRGQVRLPGGEFAMGDAFGEGYPADGETPVHTVRLRPFHIDETAVTNARFAAFVKATGHVTDAERFGSSAVFHLVVAAPDADVLGSAAGAPWWINVRGAHWRRPEGARSDITGRPNHPVVHVSWNDATAYARWAGKRLPTEAEWEYAARGGLAGRRYAWGDELTPGGRWRCNIWQGRFPHVNTAEDGHLSTAPVKSYRPNGHGLWNTAGNVWEWCSDWFSPTYYAESPTVDPHGPGTGAARVLRGGSYLCHDSYCNRYRVAARSSNTPDSSSGNLGFRCANDADLTSGSAAE
conversion of cysteine to FGly relative to the wild-type sequence [1]: substitution of Thr3, Pro4, Arg6, or Leu9 with alanine completely abrogated activity | conversion of cysteine to FGly relative to the wild-type sequence [2]: substitution of Thr3, Pro4, Arg6, or Leu9 with alanine completely abrogated activity | conversion of cysteine to FGly relative to the wild-type sequence [3]: substitution of Thr3, Pro4, Arg6, or Leu9 with alanine completely abrogated activity | conversion of cysteine to FGly relative to the wild-type sequence [4]: substitution of Thr3, Pro4, Arg6, or Leu9 with alanine completely abrogated activity
